Legend:
[1] = target: T1, CD33 (human, UniProt P20138 18-364); assay: flow cytometry on HL-60 cells (CD33+), FITC goat anti-human IgG Fab
T1 construct: whole, on cells; also called CD33^+ human acute myeloid leukemia (HL-60)

[2] = target: T2, HGFR (human, UniProt P08581 25-1390); assay: flow cytometry on A549 cells (HGFR+), FITC goat anti-human IgG Fab
T2 construct: whole, on cells; also called cMET; hepatocyte growth factor receptor

[3] = target: T3, CD47 (human, UniProt Q08722 19-323); assay: flow cytometry on MCF-7/HER2 cells (CD47+), FITC goat anti-human IgG Fab
T3 construct: whole, on cells; also called CD47^+ breast cancer (MCF7/HER2)

T1 sequence (P20138 18-364): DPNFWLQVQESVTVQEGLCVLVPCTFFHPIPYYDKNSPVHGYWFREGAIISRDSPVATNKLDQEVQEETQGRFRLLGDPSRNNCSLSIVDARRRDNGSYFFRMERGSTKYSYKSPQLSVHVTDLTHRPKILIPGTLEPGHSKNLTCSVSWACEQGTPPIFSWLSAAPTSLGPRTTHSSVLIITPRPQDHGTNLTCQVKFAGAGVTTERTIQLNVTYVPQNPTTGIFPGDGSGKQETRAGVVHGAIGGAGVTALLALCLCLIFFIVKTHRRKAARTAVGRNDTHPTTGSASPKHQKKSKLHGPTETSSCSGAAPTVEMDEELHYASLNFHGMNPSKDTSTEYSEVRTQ
T2 sequence (P08581 25-1390): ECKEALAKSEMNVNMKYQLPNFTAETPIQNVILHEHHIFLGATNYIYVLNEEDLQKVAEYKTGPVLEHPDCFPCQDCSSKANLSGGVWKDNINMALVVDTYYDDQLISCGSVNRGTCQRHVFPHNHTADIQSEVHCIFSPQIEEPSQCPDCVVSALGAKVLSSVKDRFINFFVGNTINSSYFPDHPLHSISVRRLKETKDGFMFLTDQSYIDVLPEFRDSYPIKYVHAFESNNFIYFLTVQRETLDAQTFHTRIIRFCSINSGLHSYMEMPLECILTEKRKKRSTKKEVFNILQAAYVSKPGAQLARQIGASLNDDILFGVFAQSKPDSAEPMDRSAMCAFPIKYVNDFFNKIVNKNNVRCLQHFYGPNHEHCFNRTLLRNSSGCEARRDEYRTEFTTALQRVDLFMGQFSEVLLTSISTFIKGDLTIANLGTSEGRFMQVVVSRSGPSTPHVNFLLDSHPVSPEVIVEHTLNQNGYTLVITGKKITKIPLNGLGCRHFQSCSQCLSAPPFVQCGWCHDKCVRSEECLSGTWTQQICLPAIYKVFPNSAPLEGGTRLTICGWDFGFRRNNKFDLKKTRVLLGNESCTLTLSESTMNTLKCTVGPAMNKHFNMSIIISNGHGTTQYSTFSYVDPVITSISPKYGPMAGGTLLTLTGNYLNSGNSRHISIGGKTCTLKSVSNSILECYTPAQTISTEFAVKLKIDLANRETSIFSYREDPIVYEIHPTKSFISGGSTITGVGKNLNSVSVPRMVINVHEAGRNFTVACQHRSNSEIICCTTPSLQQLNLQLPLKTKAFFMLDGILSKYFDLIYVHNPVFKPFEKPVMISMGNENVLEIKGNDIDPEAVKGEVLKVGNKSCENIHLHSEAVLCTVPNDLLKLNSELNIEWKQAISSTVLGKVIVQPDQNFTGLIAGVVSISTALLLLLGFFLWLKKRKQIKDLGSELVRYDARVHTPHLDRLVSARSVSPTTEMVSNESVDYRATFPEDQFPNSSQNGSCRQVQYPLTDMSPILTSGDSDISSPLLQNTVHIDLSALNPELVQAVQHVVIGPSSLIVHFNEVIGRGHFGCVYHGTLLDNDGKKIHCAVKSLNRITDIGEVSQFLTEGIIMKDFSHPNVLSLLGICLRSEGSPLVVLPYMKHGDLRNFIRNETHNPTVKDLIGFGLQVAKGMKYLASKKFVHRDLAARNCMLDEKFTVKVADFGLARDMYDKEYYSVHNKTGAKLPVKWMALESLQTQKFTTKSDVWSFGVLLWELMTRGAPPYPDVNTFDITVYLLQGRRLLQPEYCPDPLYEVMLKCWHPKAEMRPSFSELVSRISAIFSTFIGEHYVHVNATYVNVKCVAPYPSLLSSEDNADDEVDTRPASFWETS

B1: CTA03Fab/CTAT11scFv (bispecific antibody)
heavy: EVQLLESGGGLVQPGGSLRLSCAASGFTFSSFPMAWVRQAPGKGLEWVSTISTSGGRTYYRDSVKGRFTISRDNSKNTLYLQMNSLRAEDTAVYYCAKFRQYSGGFDYWGQGTLVTVSSASTKGPSVFPLAPSSKSTSGGTAALGCLVKDYFPEPVTVSWNSGALTSGVHTFPAVLQSSGLYSLSSVVTVPSSSLGTQTYICNVNHKPSNTKVDKKVEPKSCGGGSGGGEVQLVQSGAEVKKPGSSVKVSCKASGYTITDSNIHWVRQAPGQSLEWIGYIYPYNGGTDYNQKFKNRATLTVDNPTNTAYMELSSLRSEDTAFYYCVNGNPWLAYWGQGTLVTVSSGGGGSGGGGSGGGGSDIQLTQSPSTLSASVGDRVTITCRASESLDNYGIRFLTWFQQKPGKAPKLLMYAASNQGSGVPSRFSGSGSGTEFTLTISSLQPDDFATYYCQQTKEVPWSFGQGTKVEVK
light: DIQLTQPNSVSTSLGSTVKLSCTLSSGNIENNYVHWYQLYEGRSPTTMIYDDDKRPDGVPDRFSGSIDRSSNSAFLTIHNVAIEDEAIYFCHSYVSSFNVFGGGTKLTVLRQPKAAPSVTLFPPSSEELQANKATLVCLISDFYPGAVTVAWKADSSPVKAGVETTTPSKQSNNKYAASSYLSLTPEQWKSHRSYSCQVTHEGSTVEKTVAPTECS
notes: also called antiCD3Fab/anti-CD33scFv
**Q.** Does B1 bind [1]?
**A.** binds

B2: CTA03Fab/CTAT12scFv (bispecific antibody)
heavy: EVQLLESGGGLVQPGGSLRLSCAASGFTFSSFPMAWVRQAPGKGLEWVSTISTSGGRTYYRDSVKGRFTISRDNSKNTLYLQMNSLRAEDTAVYYCAKFRQYSGGFDYWGQGTLVTVSSASTKGPSVFPLAPSSKSTSGGTAALGCLVKDYFPEPVTVSWNSGALTSGVHTFPAVLQSSGLYSLSSVVTVPSSSLGTQTYICNVNHKPSNTKVDKKVEPKSCGGGSGGGEVQLVESGGGLVQPGGSLRLSCAASGYTFTSYWLHWVRQAPGKGLEWVGMIDPSNSDTRFNPNFKDRFTISADTSKNTAYLQMNSLRAEDTAVYYCATYRSYVTPLDYWGQGTLVTVSSGGGGSGGGGSGGGGSDIQMTQSPSSLSASVGDRVTITCKSSQSLLYTSSQKNYLAWYQQKPGKAPKLLIYWASTRESGVPSRFSGSGSGTDFTLTISSLQPEDFATYYCQQYYAYPWTFGQGTKVEIK
light: B1 light
notes: also called antiCD3Fab/anti-HGFRscFv
**Q.** Does B2 bind [2]?
**A.** binds

B3: CTA03Fab/CTAT13scFv (bispecific antibody)
heavy: EVQLLESGGGLVQPGGSLRLSCAASGFTFSSFPMAWVRQAPGKGLEWVSTISTSGGRTYYRDSVKGRFTISRDNSKNTLYLQMNSLRAEDTAVYYCAKFRQYSGGFDYWGQGTLVTVSSASTKGPSVFPLAPSSKSTSGGTAALGCLVKDYFPEPVTVSWNSGALTSGVHTFPAVLQSSGLYSLSSVVTVPSSSLGTQTYICNVNHKPSNTKVDKKVEPKSCGGGSGGGQVQLVQSGAEVKKPGASVKVSCKASGYTFTNYNMHWVRQAPGQRLEWMGTIYPGNDDTSYNQKFKDRVTITADTSASTAYMELSSLRSEDTAVYYCARGGYRAMDYWGQGTLVTVSSGGGGSGGGGSGGGGSDIVMTQSPLSLPVTPGEPASISCRSSQSIVYSNGNTYLGWYLQKPGQSPQLLIYKVSNRFSGVPDRFSGSGSGTDFTLKISRVEAEDVGVYYCFQGSHVPYTFGQGTKLEIK
light: B1 light
notes: also called antiCD3Fab/anti-CD47scFv
**Q.** Does B3 bind [3]?
**A.** binds

Source: patent publication US20240209084A1 (CYTOARM, published 2024)
